Experimental data as given in patent US20120316071A1 (published 2012).

Key:
[1] = target: T1, rHuman Notch-1/Fc Chimera, CF (R&D Systems Cat#3647-TK) (human, UniProt P46531 19-526); experiment: Multispot ECL (MSD), antigen spotted on plate, Fab 31.3 nM; blank spot 250
T1 construct: Bought recombinant protein; Fc part of the bought chimera not given

[2] = target: T2, rHuman CD44/Fc Chimera, CF (R&D Systems Cat#3660-CD) (human, UniProt P16070 21-220); experiment: ECL multispot (MSD) assay, spotted antigen; Fab 0.20 (head prints uM)
T2 construct: Bought recombinant protein; Fc part of the bought chimera not given

[3] = target: T3, rHuman ErbB2/Fc Chimera, CF (R&D Systems Cat#1129-ER) (human, UniProt P04626 23-652); experiment: as above
T3 construct: Bought recombinant protein; Fc part of the bought chimera not given

[4] = target: T4, rHuman HGF R/c-MET/Fc Chimera, CF (R&D Systems Cat#358-MT/CF) (human, UniProt P08581 25-932); experiment: as above
T4 construct: Bought recombinant protein; also called HGF R/Fc; Fc part of the bought chimera not given

[5] = target: T5, rHuman Notch-1/Fc Chimera, CF (R&D Systems Cat#3647-TK) (human, UniProt P46531 19-526); experiment: as above
T5 construct: Bought recombinant protein; Fc part of the bought chimera not given

[6] = target: T6, Recombinant Human DLL4 (R&D Systems Cat#1506-D4/CF) (human, UniProt Q9NR61 27-524); experiment: as above
T6 construct: Bought recombinant protein; also called delta-like protein 4

[7] = target: T7, rHuman P-Cadherin/Fc Chimera, CF (R&D Systems Cat#861-PC) (human, UniProt P22223 108-654); experiment: as above
T7 construct: Bought recombinant protein; Fc part of the bought chimera not given

[8] = target: T8, rHuman IGF-1 sR, CF (R&D Systems Cat#391-GR) (human, UniProt P08069 31-932); experiment: as above
T8 construct: Bought soluble receptor; The column head prints only 'IGF-1'; also called insulin-like growth factor-1 soluble receptor

[9] = target: T9, rHuman Erythropoietin R/Fc Chimera, CF (R&D Systems Cat#963-ER) (human, UniProt P19235 25-250); experiment: as above
T9 construct: Bought recombinant protein; also called EPO R; EPO R/Fc; Fc part of the bought chimera not given
T9 sequence (looked up): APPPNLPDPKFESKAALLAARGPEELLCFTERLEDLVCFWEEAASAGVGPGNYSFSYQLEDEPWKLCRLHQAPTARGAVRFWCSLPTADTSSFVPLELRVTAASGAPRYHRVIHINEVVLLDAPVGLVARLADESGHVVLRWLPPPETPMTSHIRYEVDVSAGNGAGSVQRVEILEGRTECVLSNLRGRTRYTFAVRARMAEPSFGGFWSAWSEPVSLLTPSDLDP

[10] = target: T10, rHuman EGF R/Fc Chimera, CF (R&D Systems Cat#344-ER) (human, UniProt P00533 25-645); experiment: as above
T10 construct: Bought recombinant protein; Fc part of the bought chimera not given

[11] = target: T11, rHuman P-Cadherin/Fc Chimera, CF (R&D Systems Cat#861-PC) (human, UniProt P22223 108-654); experiment: MSD multispot ECL, antigen spotted on plate, Fab 22 nM; blank spot 289
T11 construct: Bought from R&D Systems; not shown: Fc of the bought chimera

[12] = target: T12, rHuman EGF R/Fc Chimera, CF (R&D Systems Cat#344-ER) (human, UniProt P00533 25-645); experiment: as above
T12 construct: Bought from R&D Systems; also called epidermal growth factor receptor (EGF R); not shown: Fc of the bought chimera

[13] = target: T13, rHuman CD44/Fc Chimera, CF (R&D Systems Cat#3660-CD) (human, UniProt P16070 21-220); experiment: as above
T13 construct: Bought from R&D Systems; not shown: Fc of the bought chimera

[14] = target: T14, rHuman HGF R/c-MET/Fc Chimera, CF (R&D Systems Cat#358-MT/CF) (human, UniProt P08581 25-932); experiment: as above
T14 construct: Bought from R&D Systems; also called HGF R/Fc; hepatocyte growth factor receptor (HGF R/c-Met); not shown: Fc of the bought chimera

[15] = target: T15, rHuman Erythropoietin R/Fc Chimera, CF (R&D Systems Cat#963-ER) (human, UniProt P19235 25-250); experiment: as above
T15 construct: Bought from R&D Systems; also called EPO R/Fc; Epo R/Fc chimera; not shown: Fc of the bought chimera
T15 sequence (looked up): T9 sequence (looked up)

[16] = target: T16, Recombinant Human DLL4 (R&D Systems Cat#1506-D4/CF) (human, UniProt Q9NR61 27-524); experiment: as above
T16 construct: Bought from R&D Systems; also called rHuman DLL4; delta-like protein 4

[17] = target: T17, rHuman Notch-1/Fc Chimera, CF (R&D Systems Cat#3647-TK) (human, UniProt P46531 19-526); experiment: as above
T17 construct: Bought from R&D Systems; not shown: Fc of the bought chimera

[18] = target: T18, rHuman ErbB2/Fc Chimera, CF (R&D Systems Cat#1129-ER) (human, UniProt P04626 23-652); experiment: as above
T18 construct: Bought from R&D Systems; also called human epidermal growth factor 2 receptor (ErbB2); not shown: Fc of the bought chimera

[19] = target: T19, rHuman IGF-1 sR, (IGF-1 sR), CF (R&D Systems Cat#391-GR) (human, UniProt P08069 31-932); experiment: as above
T19 construct: Bought from R&D Systems and called a soluble receptor; also called insulin-like growth factor-1 soluble receptor

B1: Fab VH1-46_IGHD6-13*01_IGHJ4*01 & B3_IGKJ1*01 (Fab, V domains shown)
VH: QVQLVQSGAEVKKPGASVKVSCKASGYTFTSYYMHWVRQAPGQGLEWMGIINPSGGSTSYAQKFQGRVTMTRDTSTSTVYMELSSLRSEDTAVYYCAREGYSSSWYDYFDYWGQGTLVTVSS
VL: not shown
notes: Germline Fab made in E. coli; VH was cloned into Plasmid A (CH1, His6 and Flag tags) and the kappa VL into Plasmid C (kappa CL)
- ECL signal [1]: 563

B2: Fab VH5-51_IGHD5-18*01>3_IGHJ4*01 G100K/G104T & V3-4_IGLJ1*01 (Fab, V domains shown)
VH: EVQLVQSGAEVKKPGESLKISCKGSGYSFTSYWIGWVRQMPGKGLEWMGIIYPGDSDTRYSPSFQGQVTISADKSISTAYLQWSSLKASDTAMYYCARRKYSYTYDYFDYWGQGTLVTVSS
VL: QTVVTQEPSFSVSPGGTVTLTCGLSSGSVSTSYYPSWYQQTPGQAPRTLIYSTNTRSSGVPDRFSGSILGNKAALTITGAQADDESDYYCVLYMGSGISYVFGTGTKVTVL
notes: Tested as a Fab; The constant parts are the same as for the parent Fab (CH1 with His6/Flag tags, lambda CL); also called KT double mutant; H:KT
- ECL signal/noise ratio [2]: 1.3
- ECL signal/noise ratio [3]: 2.5
- ECL signal/noise ratio [4]: 2.4
- ECL signal/noise ratio [5]: 1.9
- ECL signal/noise ratio [6]: 3
- ECL signal/noise ratio [7]: 1.7
- ECL signal/noise ratio [8]: 1.9
- ECL signal/noise ratio [9]: 1.7
- ECL signal/noise ratio [10]: 1.5

B3: Fab VH1-46_IGHD3-10*01_IGHJ4*01 & B3_IGKJ1*01 (Fab, V domains shown)
VH: QVQLVQSGAEVKKPGASVKVSCKASGYTFTSYYMHWVRQAPGQGLEWMGIINPSGGSTSYAQKFQGRVTMTRDTSTSTVYMELSSLRSEDTAVYYCAREYYYGSGSYYNDYFDYWGQGTLVTVSS
VL: not shown
notes: Tested as a Fab made in E. coli; VH was cloned into Plasmid A (CH1 constant region, His6 and Flag tags); The kappa VL was cloned into Plasmid C (kappa CL)
- ECL signal [11]: 215
- ECL signal [12]: 312
- ECL signal [13]: 317
- ECL signal [14]: 203
- ECL signal [15]: 2240
- ECL signal [16]: 342
- ECL signal [17]: 389
- ECL signal [18]: 363
- ECL signal [19]: 347
